Paper PMC8222386

Legend:
[1] = target: iLight (evolved photosensory core module of Idiomarina sp. bacterial phytochrome IsPadC) (Idiomarina sp. A28L)
[2] = target: iLight (evolved photosensory core module of Idiomarina sp. bacterial phytochrome IsPadC) (Idiomarina sp. A28L); test: native gel or EMSA + SEC; Pfr state: purified protein illuminated with 660/15 nm light (2 mW/cm2, 0.5 h) in 20 mM HEPES pH 7.7, 300 mM NaCl; native PAGE 4-20% gradient gel, 20 ug per lane, run in darkness, ZnCl2 staining; SEC on HiLoad 16/600 Superdex 200 in darkness, protein at 1.9 mg/ml; step: dimers to tetramer
[3] = target: iLight (evolved photosensory core module of Idiomarina sp. bacterial phytochrome IsPadC) (Idiomarina sp. A28L); test: native gel or EMSA + SEC; Pr state: purified protein illuminated with 780/30 nm light (2 mW/cm2, 0.5 h) in 20 mM HEPES pH 7.7, 300 mM NaCl; native PAGE 4-20% gradient gel, 20 ug per lane, run in darkness, ZnCl2 staining; SEC on HiLoad 16/600 Superdex 200 in darkness, protein at 1.9 mg/ml
[4] = target: iLight (evolved photosensory core module of Idiomarina sp. bacterial phytochrome IsPadC) (Idiomarina sp. A28L); remark: listed apart in the source
[5] = target: iLight (evolved photosensory core module of Idiomarina sp. bacterial phytochrome IsPadC) (Idiomarina sp. A28L); remark: listed apart in the source
[6] = target: wild-type IsPadC-PCM (photosensory core module of Idiomarina sp. A28L phytochrome-activated diguanylyl cyclase) (Idiomarina sp. A28L); test: native gel or EMSA; native PAGE of Fig. 3f, 20 ug per lane, ZnCl2 staining for bound biliverdin; illumination state not told for this statement; step: monomers to dimer

repression of the ColE-driven mCherry reporter in E. coli by LexA408-DBD-iLight-msfGFP, 660 nm light against darkness [1]	stoichiometry N [2]	stoichiometry N [3]	SEAP reporter production in HeLa cells with NLS-Gal4-DBD-iLight-VP16 after 48 h of 660 nm light against darkness, exogenous biliverdin from none (~20.5-fold) to 10 uM [4]	time course of SEAP reporter production in HeLa cells with NLS-Gal4-DBD-iLight-VP16, 660 nm light against darkness, 24 h (~19-fold) to 72 h [4]	RLuc8 reporter signal in livers of mice co-transfected with NLS-Gal4-DBD-iLight-VP16 and pG12-RLuc8, 24 h of 660 nm light against darkness [5]	stoichiometry N [6]	Substance
115 fold	4	2	65 to 70 fold	70 fold	6 fold		iLight (evolved photosensory core module of Idiomarina sp. bacterial phytochrome IsPadC) (domain or fragment)
						2	wild-type IsPadC-PCM (photosensory core module of Idiomarina sp. A28L phytochrome-activated diguanylyl cyclase) (domain or fragment)
